# Data: patent publication US20210324099A1 (Chugai, published 2021)
# Residue numbers refer to the chain shown, from its start.
# B1: A375-SCF025/B167-Lamlib (antibody, human IgG1, lambda)
# heavy: EVQLVESGGGLVKPGGSLRLSCAASGFTFSTFTMNWVRQAPGKGLEWVSSISSKSTYIEYADSFKVRFTISRDNAKNSLYLQMNSLRAEDTAVYYCARYGAKNFLNWVFDYWGQGTLVTVSSASTKGPSVFPLAPSSKSTSGGTAALGCLVKDYFPEPVTVSWNSGALTSGVHTFPAVLQSSGLYSLSSVVTVPSSSLGTQTYICNVNHKPSNTKVDKKVEPKSCDKTHTCPPCPAPELWNGPSVFLFPPKPKDTLMISRTPEVTCVVVDVSDEDPEVKFNWYVDGVEVHNAKTKPREELYNSTYRVVSVLTVLHQDWLNGKEYKCKVSNTALPKPIEKTISKAKGQRREPQVYTLPPSREEMTKNQVSLTCLVKGFYPSDIAVEWESNGQPENNYKTTPPVLDSDGSFFLYSKLTVKKSRWQQGNVFSCSVMHEALHNHYTQKSLSLSP
# light: QSALTQPPSASGSPGQTVTISCTGTRYDVGYYEYVSWYQQHPGKAPKLMIYETSKRLSGVPDRFSGSKSGNTASLTVSGLQAEDEADYYCSSYRYEHQVSFGGGTKLTVLGQPKAAPSVTLFPPSSEELQANKATLVCLISDFYPGAVTVAWKADSSPVKAGVETTTPSKQSNNKYAASSYLSLTPEQWKSHRSYSCQVTHEGSTVEKTVAPTECS
# B2: A375-SCF027/B167-Lamlib (antibody, human IgG1, lambda)
# heavy: B1 heavy with L239Y, W240L, N241G, P243D, T255V, V269I, D273H, L300Q, T312P, T331K
# light: B1 light
# notes: also called A375-SCF027/B167-LamLab
# B3: A375-SCF025a/B167-Lamlib (antibody, human IgG1, lambda)
# heavy: B1 heavy with K219R
# light: B1 light
# B4: A375-SCF030/B167-Lamlib (antibody, human IgG1, lambda)
# heavy: B1 heavy with Q316R, K418D
# light: B1 light
# B5: A375-SCF032/B167-Lamlib (antibody, human IgG1, lambda)
# heavy: EVQLVESGGGLVKPGGSLRLSCAASGFTFSTFTMNWVRQAPGKGLEWVSSISSKSTYIEYADSFKVRFTISRDNAKNSLYLQMNSLRAEDTAVYYCARYGAKNFLNWVFDYWGQGTLVTVSSASTKGPSVFPLAPSSKSTSGGTAALGCLVKDYFPEPVTVSWNSGALTSGVHTFPAVLQSSGLYSLSSVVTVPSSSLGTQTYICNVNHKPSNTKVDKKVEPKSCDKTHTCPPCPAPEYLGGDSVFLFPPKPKDVLMISRTPEVTCVVIDVSHEDPEVKFNWYVDGVEVHNAKTKPREEQYNSTYRVVSVLPVLHRDWLNGKEYKCKVSNKALPKPIEKTISKAKGQRREPQVYTLPPSREEMTKNQVSLTCLVKGFYPSDIAVEWESNGQPENNYKTTPPVLDSDGSFFLYSKLTVDKSRWQQGNVFSCSVMHEALHNHYTQKSLSLSP
# light: B1 light
# B6: A375-SCF039/B167-Lamlib (antibody, human IgG1, lambda)
# heavy: B1 heavy with K418D
# light: B1 light
# B7: A375-SCF028/B167-Lamlib (antibody, human IgG1, lambda)
# heavy: B5 heavy with G242D, I269V, R316Q, D418K
# light: B1 light
# B8: A375-SCF033/B167-Lamlib (antibody, human IgG1, lambda)
# heavy: B5 heavy with G242D, I269V
# light: B1 light
# Target: T1, hFcgRIIIaF (human, UniProt P08637 17-208)
# T1 construct: extracellular domain; also called human FcγRIIIa allotype F158
# Experiment: SPR 25C; relative to A375-G1T3/B167-Lamlib;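 further: SPR with antibody captured on an anti-human Fab-lambda chip, human FcγR analyte at 8 nM for FcγRIa or 1000 nM for the others, pH 7.4, FcγR RU per captured antibody unit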
# Description: (§1) Biacore T200 (GE Healthcare) was used to evaluate the binding activity to the respective human Fcγ receptor (hereafter referred to as FcγR). Measurement was performed at 25° C. using 50 mM phosphate, 150 mM NaCl, 0.05 w/v %-P20, pH 7.4 as buffer. About 1000 RU of antibody was captured using a sensor chip immobilized with CaptureSelect™ Human Fab-lambda Kinetics Biotin Conjugate (Thermo Fisher Scientific) as a molecule for ligand capturing. Human FcγR was diluted to 8 nM for FcγRIa and 1000 nM for other FcγR in the measurement buffer, and it was interacted to the captured antibody. The binding activity of each antibody to FcγR was assessed by calculating the binding amount of FcγR (RU) per unit amount of antibody using Biacore T200 Evaluation Software 2.0.
# 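Wherever binding per 1RU of antibody is given: biacore SPR with antibody captured on an anti-human Fab lambda chip, human FcγR injected at 1000 nM (FcγRIa at 8 nM) in pH 7.4 phosphate buffer.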
# T1 sequence (P08637 17-208): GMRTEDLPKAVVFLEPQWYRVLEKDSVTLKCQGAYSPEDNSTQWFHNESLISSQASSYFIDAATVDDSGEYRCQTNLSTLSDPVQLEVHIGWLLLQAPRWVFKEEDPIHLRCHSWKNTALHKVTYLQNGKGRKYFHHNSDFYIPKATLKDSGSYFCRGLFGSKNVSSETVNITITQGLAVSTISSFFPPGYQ
row,Binder,relative binding amount
1,B1,0.06
2,B2,-0.02
3,B3,0.04
4,B4,0.08
5,B5,-0.03
6,B6,0.04
7,B7,-0.04
8,B8,0

# Target: T2, hFcgRIIaH (human, UniProt P12318 34-217)
# T2 construct: extracellular domain; also called human FcγRIIa type H (H131)
# T2 sequence (looked up): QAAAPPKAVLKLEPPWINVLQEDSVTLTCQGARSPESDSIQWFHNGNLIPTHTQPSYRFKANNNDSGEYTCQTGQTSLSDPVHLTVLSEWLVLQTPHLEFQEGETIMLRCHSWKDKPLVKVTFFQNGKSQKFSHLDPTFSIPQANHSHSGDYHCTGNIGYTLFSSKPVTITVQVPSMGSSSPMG
# Experiment: SPR 25C; relative to A375-G1T3/B167-Lamlib;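 further: SPR with antibody captured on an anti-human Fab-lambda chip, human FcγR analyte at 8 nM for FcγRIa or 1000 nM for the others, pH 7.4, FcγR RU per captured antibody unit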
# Description: as §1
row,Binder,relative binding amount
1,B1,0.91
2,B2,0.06
3,B3,0.91
4,B4,0.94
5,B5,0.05
6,B6,0.94
7,B7,0.18
8,B8,0.18

# Target: T3, hFcgRIIb (human, UniProt P31994 43-217)
# T3 construct: extracellular domain; also called human FcγRIIb
# T3 sequence (looked up): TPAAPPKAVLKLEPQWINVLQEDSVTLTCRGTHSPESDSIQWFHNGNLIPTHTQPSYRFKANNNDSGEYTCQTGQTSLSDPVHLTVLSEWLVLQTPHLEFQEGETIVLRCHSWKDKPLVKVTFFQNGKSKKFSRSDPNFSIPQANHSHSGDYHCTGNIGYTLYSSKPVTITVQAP
# Experiment: SPR 25C; relative to A375-G1T3/B167-Lamlib;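 further: SPR with antibody captured on an anti-human Fab-lambda chip, human FcγR analyte at 8 nM for FcγRIa or 1000 nM for the others, pH 7.4, FcγR RU per captured antibody unit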
# Description: as §1
row,Binder,relative binding amount
1,B1,4.67
2,B2,6.99
3,B3,4.67
4,B4,4.85
5,B5,7.14
6,B6,4.85
7,B7,9.08
8,B8,8.94

# Target: T4, hFcgRIIaR (human, UniProt P12318 34-217)
# T4 construct: extracellular domain; also called human FcγRIIa type R (R131)
# T4 sequence (looked up): T2 sequence (looked up) with H134R
# Experiment: SPR 25C; relative to A375-G1T3/B167-Lamlib;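 further: SPR with antibody captured on an anti-human Fab-lambda chip, human FcγR analyte at 8 nM for FcγRIa or 1000 nM for the others, pH 7.4, FcγR RU per captured antibody unit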
# Description: as §1
row,Binder,relative binding amount
1,B1,1.12
2,B2,0.12
3,B3,1.12
4,B4,1.15
5,B5,-0.01
6,B6,1.17
7,B7,0.64
8,B8,0.55

# Target: T5, hFcgRIa (human, UniProt P12314 16-292)
# T5 construct: extracellular domain; also called human FcγRIa; FcγRI
# Experiment: SPR 25C; relative to A375-G1T3/B167-Lamlib
# Description: as §1
# T5 sequence (P12314 16-292): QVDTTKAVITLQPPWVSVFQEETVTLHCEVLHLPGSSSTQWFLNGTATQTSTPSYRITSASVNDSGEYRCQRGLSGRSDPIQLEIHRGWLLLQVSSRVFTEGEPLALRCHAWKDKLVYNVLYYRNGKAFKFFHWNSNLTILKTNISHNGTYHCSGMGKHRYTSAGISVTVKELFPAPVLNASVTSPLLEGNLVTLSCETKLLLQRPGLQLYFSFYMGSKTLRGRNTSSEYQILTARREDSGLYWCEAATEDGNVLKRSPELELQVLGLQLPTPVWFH
row,Binder,relative binding amount
1,B1,0.03
2,B2,0.05
3,B3,0.03
4,B4,0.02
5,B5,0.06
6,B6,0.02
7,B7,0.03
8,B8,0.04

# Target: T6, hFcgRIIIaV (human, UniProt P08637 17-208)
# T6 construct: extracellular domain; also called human FcγRIIIa allotype V158
# Experiment: SPR 25C; relative to A375-G1T3/B167-Lamlib
# Description: as §1
# T6 sequence (P08637 17-208 F176V): as the sequence (P08637 17-208) above, with F160V counted along it
row,Binder,relative binding amount
1,B1,0.02
2,B2,-0.01
3,B3,0.02
4,B4,0.03
5,B5,-0.01
6,B6,0.02
7,B7,-0.01
8,B8,0

# Target: T1, hFcgRIIIaF
# Experiment: SPR 25C
# Description: as §1
row,Binder,binding per 1RU of antibody
1,B1,0.0012 RU
2,B2,-0.0005 RU
3,B3,0.0009 RU
4,B4,0.0017 RU
5,B5,-0.0007 RU
6,B6,0.0008 RU
7,B7,-0.0009 RU
8,B8,0 RU

# Target: T2, hFcgRIIaH
# Experiment: SPR 25C
# Description: as §1
row,Binder,binding per 1RU of antibody
1,B1,0.0514 RU
2,B2,0.0031 RU
3,B3,0.0514 RU
4,B4,0.0533 RU
5,B5,0.003 RU
6,B6,0.0535 RU
7,B7,0.0101 RU
8,B8,0.0103 RU

# Target: T3, hFcgRIIb
# Experiment: SPR 25C
# Description: as §1
row,Binder,binding per 1RU of antibody
1,B1,0.0512 RU
2,B2,0.0766 RU
3,B3,0.0511 RU
4,B4,0.0532 RU
5,B5,0.0782 RU
6,B6,0.0531 RU
7,B7,0.0995 RU
8,B8,0.0979 RU

# Target: T4, hFcgRIIaR
# Experiment: SPR 25C
# Description: as §1
row,Binder,binding per 1RU of antibody
1,B1,0.0519 RU
2,B2,0.0058 RU
3,B3,0.0518 RU
4,B4,0.0532 RU
5,B5,-0.0004 RU
6,B6,0.0542 RU
7,B7,0.0299 RU
8,B8,0.0255 RU

# Target: T5, hFcgRIa
# Experiment: SPR 25C
# Description: as §1
row,Binder,binding per 1RU of antibody
1,B1,0.0022 RU
2,B2,0.0044 RU
3,B3,0.0021 RU
4,B4,0.002 RU
5,B5,0.0049 RU
6,B6,0.0018 RU
7,B7,0.0027 RU
8,B8,0.0033 RU

# Target: T6, hFcgRIIIaV
# Experiment: SPR 25C
# Description: as §1
row,Binder,binding per 1RU of antibody
1,B1,0.0014 RU
2,B2,-0.0006 RU
3,B3,0.0016 RU
4,B4,0.002 RU
5,B5,-0.0007 RU
6,B6,0.0013 RU
7,B7,-0.001 RU
8,B8,0.0002 RU

# Target: human FcRn (human, UniProt P55899 24-290; P61769 21-119, limits assumed)
# Experiment: SPR 25C pH 6.0, steady state;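 further: antibody captured on chip via anti-human Fab-lambda ligand, human FcRn injected as analyte in 50 mM phosphate buffer with 150 mM NaCl and P20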
# human FcRn, sequence (P55899 24-290 limits assumed, chain 1 of 2): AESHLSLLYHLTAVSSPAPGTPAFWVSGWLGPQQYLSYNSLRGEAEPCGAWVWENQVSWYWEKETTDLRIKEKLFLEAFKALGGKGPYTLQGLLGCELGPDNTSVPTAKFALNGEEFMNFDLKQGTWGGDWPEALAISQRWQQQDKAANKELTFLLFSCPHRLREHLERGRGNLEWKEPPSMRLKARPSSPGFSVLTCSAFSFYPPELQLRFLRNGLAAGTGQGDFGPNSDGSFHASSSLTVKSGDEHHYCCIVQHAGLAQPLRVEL
# human FcRn, sequence (P61769 21-119 limits assumed, chain 2 of 2): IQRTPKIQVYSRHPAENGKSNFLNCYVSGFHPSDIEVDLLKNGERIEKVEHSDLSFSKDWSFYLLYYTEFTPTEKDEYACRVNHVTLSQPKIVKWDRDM
row,Binder,Kd
1,B1,1100 nM
2,B2,1330 nM
3,B3,1130 nM
4,B4,863 nM
5,B5,966 nM
6,B6,1090 nM
7,B7,1270 nM
8,B8,874 nM
